Source: patent US20230040148 (published 2023)

B1: LbCpf1 HPRT 38330-AS-23 crRNA ; HPRT 38330-AS target (protospacer as DNA, 23 nt) (ssRNA ; dsDNA)
RNA: UAAUUUCUACUAAGUGUAGAUGGUUAAAGAUGGUUAAAUGAUUG
DNA 1: GGTTAAAGATGGTTAAATGATTG
DNA 2: CAATCATTTAACCATCTTTAACC
modifications: Alt-R end modifications on 5' and 3' ends
B2: LbCpf1 HPRT 38115-AS-23 crRNA ; HPRT 38115-AS target (protospacer as DNA, 23 nt) (ssRNA ; dsDNA)
RNA: UAAUUUCUACUAAGUGUAGAUACACACCCAAGGAAAGACUAUGA
DNA 1: ACACACCCAAGGAAAGACTATGA
DNA 2: TCATAGTCTTTCCTTGGGTGTGT
modifications: Alt-R end modifications on 5' and 3' ends

Columns and labels:
[1] = molecular target: T1, LbCas12a N527R/D559P/E795L (Lachnospiraceae bacterium ND2006); assay: cell_activity; 5 uM RNP, HEK293, 48 h, T7EI; WT 78.5; PAM not stated
LbCas12a D559P/E795L [2] = molecular target: T2, LbCas12a D559P/E795L (Lachnospiraceae bacterium ND2006); assay: as above
LbCas12a N527R/E795L [3] = molecular target: T3, LbCas12a N527R/E795L (Lachnospiraceae bacterium ND2006); assay: as above
LbCas12a D559P [4] = molecular target: T4, LbCas12a D559P (Lachnospiraceae bacterium ND2006); assay: as above
LbCas12a N527R [5] = molecular target: T5, LbCas12a N527R (Lachnospiraceae bacterium ND2006); assay: as above
LbCas12a E795L [6] = molecular target: T6, LbCas12a E795L (Lachnospiraceae bacterium ND2006); assay: as above
[7] = molecular target: T1, LbCas12a N527R/D559P/E795L; assay: cell_activity; 5 uM RNP, HEK293, 48 h, T7EI; WT 80.35; PAM not stated
LbCas12a D559P/E795L [8] = molecular target: T2, LbCas12a D559P/E795L; assay: as above
LbCas12a N527R/E795L [9] = molecular target: T3, LbCas12a N527R/E795L; assay: as above
LbCas12a D559P [10] = molecular target: T4, LbCas12a D559P; assay: as above
LbCas12a N527R/D559P = LbCas12a N527R/D559P (Lachnospiraceae bacterium ND2006); assay: as above
LbCas12a N527R [11] = molecular target: T5, LbCas12a N527R; assay: as above
LbCas12a E795L [12] = molecular target: T6, LbCas12a E795L; assay: as above

| Binder | activity [1] [% cleavage] | activity (LbCas12a D559P/E795L [2]) [% cleavage] | activity (LbCas12a N527R/E795L [3]) [% cleavage] | activity (LbCas12a D559P [4]) [% cleavage] | activity (LbCas12a N527R [5]) [% cleavage] | activity (LbCas12a E795L [6]) [% cleavage] | activity [7] [% cleavage] | activity (LbCas12a D559P/E795L [8]) [% cleavage] | activity (LbCas12a N527R/E795L [9]) [% cleavage] | activity (LbCas12a D559P [10]) [% cleavage] | activity (LbCas12a N527R/D559P) [% cleavage] | activity (LbCas12a N527R [11]) [% cleavage] | activity (LbCas12a E795L [12]) [% cleavage] |
| --- | --- | --- | --- | --- | --- | --- | --- | --- | --- | --- | --- | --- | --- |
| B1 | 28.8 | 75.8 | 21.2 | 58.4 | 9.6 | 79.5 | – | – | – | – | – | – | – |
| B2 | – | – | – | – | – | – | 60.3 | 79.3 | 39.3 | 78 | 9.39 | 35 | 78.2 |
